Results taken from patent US8173604.

How the values were obtained:
[1] = system: 4060 peptide (eighteen-residue peptide, residues 40-57 of human Skp2)
[2] = system: Peptide RxL
[3] = molecular target: insect cell-produced and purified GST-cyclin A/Cdk2 (kinase reactions, ~3 nM) (UniProt P20248); experiment: kinase inhibition: purified proteins, ~3 nM GST-cyclin A/Cdk2, Rb-C phosphorylation, non-linear least squares (FIG. 7F)

purified p27 (GST cleaved off by thrombin), sequence (P46527 whole entry): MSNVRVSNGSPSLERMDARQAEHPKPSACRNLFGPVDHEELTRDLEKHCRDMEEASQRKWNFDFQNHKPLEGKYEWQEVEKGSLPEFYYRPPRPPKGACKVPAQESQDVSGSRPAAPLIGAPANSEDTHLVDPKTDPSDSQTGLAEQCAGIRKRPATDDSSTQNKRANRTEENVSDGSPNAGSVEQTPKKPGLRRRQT

Row | Substance | IP-kinase assay, phosphorylation of Rb-C by cyclin A/Cdk2 [1] | IP-kinase assay, phosphorylation of Rb-C by cyclin A/Cdk2 [2] | Ki [3] [nM]
1 | myc-cyclin A/Cdk2 (293T cell extracts transfected with myc-cyclin A and Cdk2) | the 4060 peptide did not | the RxL peptide inhibited the kinase activity of cyclin A/Cdk2 towards Rb-C as expected | 
2 | purified p27 (GST cleaved off by thrombin) (from UniProt P46527 1-198) (other; other documents disagree on this pair) |  |  | 2
